Experimental data from the supplement of paper PMC9112550, “Optimization of the antimicrobial peptide Bac7 by deep mutational scanning” (BMC Biology, 2022).

Tested on: Escherichia coli TOP10
Experiment: shrunken log2 fold change of peptide-encoding DNA abundance (4.5 h post-induction vs induction); higher = less antimicrobial activity (less host growth inhibition)
Conditions: time post-induction: 4.5 h; library: site-saturation at positions 5, 18, 19, 20
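Note: peptides expressed intracellularly from a pBAD plasmid library in pooled LB shake-flask culture, induced with 0.3% L-arabinose, DNA abundance read by NGS, three biological replicates, DESeq2 with apeglm shrinkage.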

Sequence | shrunken log2 fold change
RRIRVRPPRLPRPRPRPHEKPRP | 0.0571
RRIRVRPPRLPRPRPRPAPHPRP | 0.286
RRIRARPPRLPRPRPRPDFMPRP | 0.466
RRIRLRPPRLPRPRPRPRWFPRP | 0.602
RRIRHRPPRLPRPRPRPKSCPRP | -0.0344
RRIRRRPPRLPRPRPRPAITPRP | -0.0525
RRIRSRPPRLPRPRPRPNDQPRP | -0.102
RRIRTRPPRLPRPRPRPYLYPRP | -0.702
RRIRFRPPRLPRPRPRPIWGPRP | 0.0125
RRIRTRPPRLPRPRPRPKCLPRP | -0.0528
RRIRYRPPRLPRPRPRPSKTPRP | -0.0513
RRIRRRPPRLPRPRPRPGWLPRP | 0.427
RRIRRRPPRLPRPRPRPIFGPRP | 0.338
RRIRGRPPRLPRPRPRPHDKPRP | 0.475
RRIRIRPPRLPRPRPRPSIVPRP | -0.477
RRIRERPPRLPRPRPRPYCYPRP | -0.979
RRIRARPPRLPRPRPRPLRVPRP | 3.15
RRIRWRPPRLPRPRPRPRNNPRP | -0.162
RRIRCRPPRLPRPRPRPKCMPRP | -0.483
RRIRKRPPRLPRPRPRPHHSPRP | -0.298
RRIRCRPPRLPRPRPRPKHIPRP | -0.443
RRIRSRPPRLPRPRPRPKPGPRP | 0.283
RRIRLRPPRLPRPRPRPIYSPRP | 0.0408
RRIRTRPPRLPRPRPRPDDGPRP | 0.02
RRIRLRPPRLPRPRPRPPHSPRP | 0.0872

Sequence | shrunken log2 fold change
RRIRARPPRLPRPRPRPQAEPRP | 0.892
RRIRNRPPRLPRPRPRPMRHPRP | -0.18
RRIRFRPPRLPRPRPRPARYPRP | 0.153
RRIRIRPPRLPRPRPRPRHSPRP | -0.646
RRIRERPPRLPRPRPRPRCYPRP | -0.138
RRIRCRPPRLPRPRPRPPYYPRP | -0.314
RRIRHRPPRLPRPRPRPSLFPRP | -0.625
RRIRDRPPRLPRPRPRPWYVPRP | -0.726
RRIRPRPPRLPRPRPRPLHNPRP | -0.201
RRIRIRPPRLPRPRPRPYCAPRP | -0.978
RRIRYRPPRLPRPRPRPDIPPRP | -0.119
RRIRERPPRLPRPRPRPVFHPRP | -0.238
RRIRKRPPRLPRPRPRPPSEPRP | 0.413
RRIRARPPRLPRPRPRPKYWPRP | 0.233
RRIRERPPRLPRPRPRPLWNPRP | -0.298
RRIRMRPPRLPRPRPRPDKAPRP | -0.041
RRIRARPPRLPRPRPRPVATPRP | 0.982
RRIRFRPPRLPRPRPRPPQLPRP | 0.274
RRIRLRPPRLPRPRPRPTMCPRP | -0.0109
RRIRNRPPRLPRPRPRPTCAPRP | 0.161
RRIRDRPPRLPRPRPRPTYLPRP | 0.00451
RRIRWRPPRLPRPRPRPETCPRP | 0.16
RRIRERPPRLPRPRPRPVYCPRP | -0.477
RRIRERPPRLPRPRPRPDPEPRP | -0.159
RRIRMRPPRLPRPRPRPRSEPRP | 0.81

Sequence | shrunken log2 fold change
RRIRKRPPRLPRPRPRPVQTPRP | 0.914
RRIRMRPPRLPRPRPRPKHDPRP | 0.43
RRIRGRPPRLPRPRPRPAAYPRP | 0.929
RRIRCRPPRLPRPRPRPKQCPRP | 0.269
RRIRTRPPRLPRPRPRPYKKPRP | -0.317
RRIRCRPPRLPRPRPRPQRMPRP | -0.0914
RRIRIRPPRLPRPRPRPRTRPRP | 0.0709
RRIRLRPPRLPRPRPRPVCMPRP | -0.246
RRIRPRPPRLPRPRPRPVCDPRP | 0.333
RRIRVRPPRLPRPRPRPVIYPRP | -0.39
RRIRWRPPRLPRPRPRPRCTPRP | 0.243
RRIRLRPPRLPRPRPRPYACPRP | -0.0291
RRIRTRPPRLPRPRPRPIWIPRP | -0.00704
RRIRLRPPRLPRPRPRPTWPPRP | 0.705
RRIRERPPRLPRPRPRPSSYPRP | -1.12
RRIRSRPPRLPRPRPRPIVYPRP | -0.255
RRIRHRPPRLPRPRPRPSYPPRP | -0.868
RRIRGRPPRLPRPRPRPFHGPRP | 0.0325
RRIRKRPPRLPRPRPRPLAGPRP | 0.286
RRIRSRPPRLPRPRPRPTMHPRP | 0.0312
RRIRFRPPRLPRPRPRPMWTPRP | -0.37
RRIRARPPRLPRPRPRPAMLPRP | 0.226
RRIRTRPPRLPRPRPRPPAVPRP | 0.292
RRIRVRPPRLPRPRPRPVKTPRP | -0.11
RRIRERPPRLPRPRPRPIEAPRP | -0.0164

Sequence | shrunken log2 fold change
RRIRWRPPRLPRPRPRPPPRPRP | 1.14
RRIRERPPRLPRPRPRPTRQPRP | 0.588
RRIRVRPPRLPRPRPRPSMRPRP | 0.477
RRIRDRPPRLPRPRPRPWIEPRP | 0.135
RRIRKRPPRLPRPRPRPLHVPRP | 0.0446
RRIRLRPPRLPRPRPRPHLNPRP | 0.141
RRIRPRPPRLPRPRPRPCMQPRP | -0.358
RRIRMRPPRLPRPRPRPAAQPRP | 1.12
RRIRTRPPRLPRPRPRPFKVPRP | 0.0475
RRIRDRPPRLPRPRPRPNHEPRP | -0.0728
RRIRYRPPRLPRPRPRPHIYPRP | -0.725
RRIRERPPRLPRPRPRPTLIPRP | 0.0112
RRIRLRPPRLPRPRPRPGSEPRP | -0.0984
RRIRRRPPRLPRPRPRPQCDPRP | 0.333
RRIRPRPPRLPRPRPRPGRHPRP | -0.166
RRIRWRPPRLPRPRPRPMNIPRP | -0.541
RRIRNRPPRLPRPRPRPYMKPRP | -0.03
RRIRRRPPRLPRPRPRPVKVPRP | -0.1
RRIRQRPPRLPRPRPRPDFDPRP | -0.0668
RRIRGRPPRLPRPRPRPDEVPRP | 0.885
RRIRSRPPRLPRPRPRPRWNPRP | 0.0205
RRIRRRPPRLPRPRPRPTNPPRP | 0.122
RRIRHRPPRLPRPRPRPRPAPRP | 0.479
RRIRMRPPRLPRPRPRPFHAPRP | 0.199
RRIRLRPPRLPRPRPRPWAAPRP | 0.15

Sequence | shrunken log2 fold change
RRIRDRPPRLPRPRPRPWLTPRP | -0.0223
RRIRDRPPRLPRPRPRPEAAPRP | 1.84
RRIRMRPPRLPRPRPRPMGCPRP | 0.0612
RRIRSRPPRLPRPRPRPWVFPRP | 0.0645
RRIRCRPPRLPRPRPRPTVIPRP | -0.907
RRIRIRPPRLPRPRPRPAFHPRP | -0.2
RRIRSRPPRLPRPRPRPENNPRP | -0.449
RRIRARPPRLPRPRPRPIEDPRP | -0.0663
RRIRVRPPRLPRPRPRPQDYPRP | -0.125
RRIRWRPPRLPRPRPRPDKIPRP | -0.0504
RRIRGRPPRLPRPRPRPIARPRP | 0.792
RRIRRRPPRLPRPRPRPKLYPRP | 0.174
RRIRERPPRLPRPRPRPYVEPRP | -0.534
RRIRNRPPRLPRPRPRPKPTPRP | 0.133
RRIRIRPPRLPRPRPRPYAWPRP | -0.402
RRIRHRPPRLPRPRPRPAVLPRP | 0.0684
RRIRRRPPRLPRPRPRPGKFPRP | 0.284
RRIRGRPPRLPRPRPRPEQMPRP | 0.152
RRIRCRPPRLPRPRPRPIATPRP | 0.366
RRIRPRPPRLPRPRPRPYGVPRP | -0.157
RRIRKRPPRLPRPRPRPDFLPRP | 0.179
RRIRRRPPRLPRPRPRPLTDPRP | 0.223
RRIRCRPPRLPRPRPRPPWIPRP | -0.209
RRIRMRPPRLPRPRPRPFSNPRP | -0.175
RRIRNRPPRLPRPRPRPIDIPRP | -0.947
